Results taken from patent publication EP0662093B1.

Columns and labels:
[1] = target: HIV-1 RF gp120 (HIV-1 strain RF) (UniProt P04579); test: cell-based or functional assay
[2] = target: native HIV-1IIIB gp120 (HIV-1 strain IIIB) (UniProt P04578); test: cell-based or functional assay
[3] = target: native HIV-1MN gp120 (HIV-1 strain MN) (UniProt P05877); test: cell-based or functional assay
[4] = target: peptide aa 302-316 of HIV-1MN gp120 (HIV-1 strain MN); test: ELISA on coated peptide (250 ng/well); 19.0ng antibody
[5] = target: peptide aa 312-326 of HIV-1MN gp120 (HIV-1 strain MN); test: as above
[6] = target: peptide aa 322-336 of HIV-1MN gp120 (HIV-1 strain MN); test: as above
[7] = target: peptide aa 302-316 of HIV-1MN gp120 (HIV-1 strain MN); test: ELISA on coated peptide (250 ng/well); 4.75ng antibody
[8] = target: peptide aa 312-326 of HIV-1MN gp120 (HIV-1 strain MN); test: as above
[9] = target: peptide aa 322-336 of HIV-1MN gp120 (HIV-1 strain MN); test: as above
[10] = target: peptide aa 302-316 of HIV-1MN gp120 (HIV-1 strain MN); test: ELISA on coated peptide (250 ng/well); 9.50ng antibody
[11] = target: peptide aa 312-326 of HIV-1MN gp120 (HIV-1 strain MN); test: as above
[12] = target: peptide aa 322-336 of HIV-1MN gp120 (HIV-1 strain MN); test: as above
[13] = target: native HIV-1MN gp120 (HIV-1 strain MN) (UniProt P05877); test: radioimmunoassay of hybridoma supernatant on HIV-1MN-infected against uninfected H9 cells
[14] = target: native HIV-1MN gp120 (HIV-1 strain MN) (UniProt P05877); test: ELISA of hybridoma supernatant on membranes of HIV-1MN-infected against uninfected H9 cells
[15] = target: peptide aa 302-316 of HIV-1MN gp120 (HIV-1 strain MN); test: ELISA on coated peptide (250 ng/well); 500ng MIgG
[16] = target: peptide aa 312-326 of HIV-1MN gp120 (HIV-1 strain MN); test: ELISA on coated peptide (250 ng/well); 500ng MIgG
[17] = target: peptide aa 322-336 of HIV-1MN gp120 (HIV-1 strain MN); test: ELISA on coated peptide (250 ng/well); 500ng MIgG

UniProt P04579, sequence (P04579 32-519 limits assumed): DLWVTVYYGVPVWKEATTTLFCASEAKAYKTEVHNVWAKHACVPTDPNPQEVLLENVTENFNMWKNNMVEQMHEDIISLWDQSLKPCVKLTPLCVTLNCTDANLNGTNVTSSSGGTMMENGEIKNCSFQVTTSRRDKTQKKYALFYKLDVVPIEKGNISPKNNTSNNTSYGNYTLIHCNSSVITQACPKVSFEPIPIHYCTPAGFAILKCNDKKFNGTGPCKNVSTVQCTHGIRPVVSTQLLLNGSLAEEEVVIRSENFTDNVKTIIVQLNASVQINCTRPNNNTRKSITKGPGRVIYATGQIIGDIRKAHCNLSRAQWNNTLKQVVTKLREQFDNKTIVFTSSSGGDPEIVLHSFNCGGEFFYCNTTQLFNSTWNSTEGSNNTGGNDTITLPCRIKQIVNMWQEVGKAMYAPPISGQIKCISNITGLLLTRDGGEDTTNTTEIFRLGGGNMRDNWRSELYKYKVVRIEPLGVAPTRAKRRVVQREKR

In the case of monoclonal antibody NM-01, the ID50, inhibition of live RF virus, RT assay [1] is reported as 0.05 µg/mL, the ID50, inhibition of syncytium formation by RF-infected cells [1] is reported as 4 µg/mL and the percent inhibition of syncytium formation by RF-infected cells at 25 µg antibody [1] is reported as 59%. For the same substance, the ID50, inhibition of syncytium formation by IIIB-infected H9 cells with C8166 cells [2] was 3 µg/mL, the ID50, neutralization of live IIIB isolate, MT-2 assay [2] was 0.1 µg/mL and the ID50, neutralization of live IIIB virus, RT assay [2] was 0.1 µg/mL. For the same substance, the ID50, neutralization of live IIIB virus, RT assay (run with F58/H3 and P4/D10) [2] was 0.1 µg/mL, the percent inhibition of syncytium formation by IIIB-infected cells at 25 µg antibody [2] was 85% and the 50% inhibition of viral infectivity (ID50), live MN virus, RT assay [3] was < 1 µg/mL. The 50% inhibition of viral infectivity (ID50), live MN virus, RT assay (run with F58/H3 and P4/D10) [3] was < 1 µg/mL, the ID50, inhibition of syncytium formation by MN-infected H9 cells with C8166 cells [3] was 2 µg/mL and the ID50, neutralization of live MN isolate, MT-2 assay [3] was 2 µg/mL. For the same substance, the percent inhibition of syncytium formation by MN-infected cells at 25 µg antibody [3] was 85%, the Optical density at 650nm [4] was 0.024 OD 650nm and the Optical density at 650nm [5] was 1.14 OD 650nm. It also gave an Optical density at 650nm [6] of 0.03 OD 650nm, an Optical density at 650nm [7] of 0.024 OD 650nm and an Optical density at 650nm [8] of 0.781 OD 650nm. The Optical density at 650nm [9] was 0.03 OD 650nm, the Optical density at 650nm [10] was 0.024 OD 650nm and the Optical density at 650nm [11] was 0.827 OD 650nm. The Optical density at 650nm [12] was 0.028 OD 650nm, the Ratio cpm inf/cpm uninf (RIA) [13] was 9.81 and the ratio infected/uninfected (ELISA, Run 1) [14] was 5.76.
In the case of mouse IgG (antibody), the Optical density at 650nm [15] is reported as 0.049 OD 650nm, the Optical density at 650nm [16] is reported as 0.043 OD 650nm and the Optical density at 650nm [17] is reported as 0.042 OD 650nm.
